Consider 8 molecules from US20230050380A1 (CHIOME BIOSCIENCE, published 2023).

The target of assay [1] is T1, crab-eating macaque CDCP1 with N-terminal c-Myc tag (expression vector GS02), on crab-eating macaque … (crab-eating macaque (Macaca …, UniProt Q9H5V8 30-836 (human entry))).
T1 chain: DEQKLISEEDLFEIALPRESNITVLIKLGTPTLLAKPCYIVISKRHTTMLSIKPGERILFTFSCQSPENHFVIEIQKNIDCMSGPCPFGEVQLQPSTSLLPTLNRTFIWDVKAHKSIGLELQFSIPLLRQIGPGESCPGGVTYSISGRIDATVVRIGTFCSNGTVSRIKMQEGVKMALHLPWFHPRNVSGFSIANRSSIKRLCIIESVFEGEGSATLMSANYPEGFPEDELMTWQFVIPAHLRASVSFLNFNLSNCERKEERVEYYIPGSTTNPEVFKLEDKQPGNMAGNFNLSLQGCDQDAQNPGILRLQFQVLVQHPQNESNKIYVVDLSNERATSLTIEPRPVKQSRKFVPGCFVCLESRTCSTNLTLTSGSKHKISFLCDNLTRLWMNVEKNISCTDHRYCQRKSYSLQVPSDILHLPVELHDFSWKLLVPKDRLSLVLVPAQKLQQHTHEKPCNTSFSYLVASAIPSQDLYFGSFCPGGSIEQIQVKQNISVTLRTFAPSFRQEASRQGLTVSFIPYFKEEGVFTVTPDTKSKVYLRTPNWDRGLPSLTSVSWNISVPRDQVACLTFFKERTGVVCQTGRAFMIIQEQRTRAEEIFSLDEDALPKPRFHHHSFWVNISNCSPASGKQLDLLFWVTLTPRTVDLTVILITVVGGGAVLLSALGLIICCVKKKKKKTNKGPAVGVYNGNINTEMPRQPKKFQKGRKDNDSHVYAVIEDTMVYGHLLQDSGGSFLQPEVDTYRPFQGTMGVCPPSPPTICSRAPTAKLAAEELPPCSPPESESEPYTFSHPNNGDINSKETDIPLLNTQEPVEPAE
In words: flow cytometry on crab-eating macaque CDCP1-expressing CHO-K1 cells. An excerpt:
The hCDCP1-expressing CHO-K1 cells and the crab-eating macaque CDCP1-expressing CHO-K1 cells were exfoliated and dispersed using 0.25% trypsin/EDTA (Nacalai Tesque, Inc.), and were then reacted with various concentrations of individual mouse-human chimeric antibodies, namely, mh12A041HCori/LCori, mh14A025HCori/LCori, mh14A043HCori/LCori, mh14A055, mh14A063HCori/LCori, and mh14A091. Thereafter, the binding property of the antibodies was observed by flow cytometry (FIG. 9). As a result, these 6 antibodies all reacted with the crab-eating macaque CDCP1, and in particular, the 5 antibodies other than mh14A055 reacted with both the human CDCP1 and the crab-eating macaque CDCP1 at the same levels.
Background: In flow cytometry, cells or beads pass a laser one at a time.

In assay [2] the target is T2, full-length hCDCP1 with N-terminal c-Myc tag (expression vector GS01), on Ba/F3-hCDCP1 cells or … (human, UniProt Q9H5V8 30-836).
T2 construct: also called human CDCP1; hCDCP1 forced expression cells
T2 sequence: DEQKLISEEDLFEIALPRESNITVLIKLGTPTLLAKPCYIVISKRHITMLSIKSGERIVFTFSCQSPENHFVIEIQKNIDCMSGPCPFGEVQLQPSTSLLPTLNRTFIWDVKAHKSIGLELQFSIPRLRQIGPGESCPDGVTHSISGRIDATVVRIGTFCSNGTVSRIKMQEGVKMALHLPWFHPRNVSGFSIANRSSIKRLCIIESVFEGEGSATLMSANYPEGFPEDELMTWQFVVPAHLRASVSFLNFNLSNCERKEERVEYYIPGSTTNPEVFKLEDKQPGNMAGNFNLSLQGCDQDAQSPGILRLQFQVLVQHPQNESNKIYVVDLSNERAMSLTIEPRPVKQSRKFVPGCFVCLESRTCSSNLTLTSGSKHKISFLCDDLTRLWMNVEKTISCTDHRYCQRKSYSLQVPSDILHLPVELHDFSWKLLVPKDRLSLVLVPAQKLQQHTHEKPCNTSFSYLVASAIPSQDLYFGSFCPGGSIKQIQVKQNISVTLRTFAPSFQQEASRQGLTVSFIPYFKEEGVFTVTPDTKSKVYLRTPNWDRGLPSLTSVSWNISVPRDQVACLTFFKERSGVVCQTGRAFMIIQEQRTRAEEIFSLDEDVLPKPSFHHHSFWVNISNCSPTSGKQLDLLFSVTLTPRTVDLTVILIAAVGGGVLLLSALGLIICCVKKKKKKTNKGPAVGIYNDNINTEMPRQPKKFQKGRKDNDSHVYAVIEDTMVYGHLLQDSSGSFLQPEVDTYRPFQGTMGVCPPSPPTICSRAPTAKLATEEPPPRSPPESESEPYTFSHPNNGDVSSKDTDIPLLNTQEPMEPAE
Briefly: flow cytometry on Ba/F3-hCDCP1 cells.

In assay [3] the target is T2, full-length hCDCP1 with N-terminal …. In words: flow cytometry on untreated Ba/F3-hCDCP1 cells (comparison of FIG. 8). As to the method:
In order to investigate whether the obtained anti-hCDCP1 mouse-human chimeric antibodies bind to the N-terminal side of the serine protease cleavage site of the hCDCP1 molecules or bind to the transmembrane region side, […] the technique mentioned in the previous section. The following anti-hCDCP1 mouse-human chimeric antibody clones were evaluated: [0259] mh12A041HCori/LCori, mh14A025HCori/LCori, mh14A043HCori/LCori, mh14A055, mh14A063HCori/LCori, and mh14A091.
[…] It was confirmed by the same Western blotting as that mentioned in the previous section that the full-length hCDCP1 disappeared and only the cleaved hCDCP1 was present in the above-treated Ba/F3-CDCP1 cells. With respect to these cells, a dilution series of anti-hCDCP1 mouse-human chimeric antibodies from 5 μg/mL to 5 ng/mL was prepared, and was then reacted at 4° C. for 30 minutes. As a negative control, a similar dilution series of anti-RS virus antibodies described in the later section was prepared as a non-specific human IgG, and was then reacted at 4° C. for 30 minutes.

Assay [4] deals with T3, hCDCP1 expressed by PC3 cells and other human cancer cell lines (endogenous) (human, UniProt Q9H5V8 30-836).
T3 construct: Endogenous protein on cell lines; PC3 is said to express also the cleaved form; also called human CDCP1
T3 sequence: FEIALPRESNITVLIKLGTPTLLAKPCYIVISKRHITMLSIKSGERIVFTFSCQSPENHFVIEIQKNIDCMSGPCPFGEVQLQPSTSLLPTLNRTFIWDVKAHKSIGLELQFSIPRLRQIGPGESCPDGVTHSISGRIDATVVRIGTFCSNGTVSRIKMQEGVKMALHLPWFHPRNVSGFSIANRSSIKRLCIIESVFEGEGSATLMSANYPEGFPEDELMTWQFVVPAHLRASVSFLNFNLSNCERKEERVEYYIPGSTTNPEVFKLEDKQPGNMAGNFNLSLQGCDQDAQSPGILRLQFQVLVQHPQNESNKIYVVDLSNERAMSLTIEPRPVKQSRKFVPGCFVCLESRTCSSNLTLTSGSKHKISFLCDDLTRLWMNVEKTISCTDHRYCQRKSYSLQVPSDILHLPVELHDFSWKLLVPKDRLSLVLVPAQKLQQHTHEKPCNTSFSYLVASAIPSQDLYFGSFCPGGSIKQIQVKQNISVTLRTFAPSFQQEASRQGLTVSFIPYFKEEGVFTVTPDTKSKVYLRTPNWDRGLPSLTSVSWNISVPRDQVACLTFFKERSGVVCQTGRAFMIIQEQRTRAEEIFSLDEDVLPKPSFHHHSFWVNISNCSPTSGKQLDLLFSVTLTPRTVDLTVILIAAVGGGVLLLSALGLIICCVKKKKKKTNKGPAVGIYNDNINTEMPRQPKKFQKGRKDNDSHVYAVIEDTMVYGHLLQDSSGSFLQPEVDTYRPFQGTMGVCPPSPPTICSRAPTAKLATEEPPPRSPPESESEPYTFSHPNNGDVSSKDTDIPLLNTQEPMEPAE
In words: cancer cells that express hCDCP1; method not given.

B1: mh14A063HCori/LCori (antibody, human IgG1, kappa, V domains shown)
VH: EVQLQESGGGLVQPGGSLKLSCAASGFTFSSYTMSWVRQTPEKRLEWVAYISNGGGSTYYPDTVKGRFTISRDNAKNTLYLQMSSLKSEDTAMYYCARYDLGFAYWGQGTLVTVSS
VL: NIVLTQSPASLAVSLGQRATISCRASESVDSYGNSFMHWYQQKPGQPPKLLIFLASNLESGVPARFSGSGSRTDFTLTIDPVEADDAATYYCQQNNEDPWTFGGGTNLEIKR
notes: mouse-human chimeric antibody, human IgG1/kappa constant regions; also called mh14A063HCori/LCori-biotin (biotinylated form)
With B1, the binding result in assay [1] and in assay [2] was “binds” in each case.

B2: mh14A091 (antibody, human IgG1, kappa, V domains shown)
VH: EVQLQESGAELARPGASVKLSCKASGYTFTSYWMQWVKQRPGQGLEWIGAIYPGDGDTRYTQKFKGKATLTADKSSSTAYMQLSSLASEDSAVYYCAGYDAPWFAYWGQGTLVTVSS
VL: NIVLTQSPASLAVSLGQRATISCRASESVDSYGNSFMHWYQQKPGQPPKLLIYLASNLESGVPARFSGSGSRTDFTLTIDPVEADDAATYYCQQNNEDPWTFGGGTKLEIKR
notes: mouse-human chimeric antibody of 14A091, human IgG1/kappa constant regions
Turning to B2, the binding result in assay [1] and in assay [3] was “binds” throughout.

B3: mh14A055 (antibody, human IgG1, kappa, V domains shown)
VH: EVQLQESGPGLVAPSQSLSITCTVSGFSLTGYGVNWVRQPPGKGLEWLGMIWGDGSTDYNSALKSRLSISKDNSKSQVFLKMNSLQTDDTARYYCARDGYDGAMDYWGQGTSVTVSS
VL: not shown
notes: mouse-human chimeric antibody of 14A055, human IgG1/kappa constant regions
As to B3, the binding result in assay [1] and in assay [3] was “binds” each time.

B4: mh12A041HCori/LCori (antibody, human IgG1, kappa, V domains shown)
VH: EVQLQESGPGILQPSQTLSLTCSFSGFSLSTSGMGVSWIRQPSGKGLEWLAHIYWDDDKRYNPSLKSRLTISKDTSSNQVFLKITSVDTADTATYYCARSGSYYGSSLDCWGQGTTLTVSS
VL: DVLMTQTPLSLPVSLGDQASISCRSSQSIVHSNGNTYLEWYLQKPGQSPKLLIYKVSNRFSGVPDRFSGSGSGTDFTLKISRVEAEDLGVYYCFQGSHVPWTFGGGTKLEIKR
notes: mouse-human chimeric antibody, human IgG1/kappa constant regions; also called mh12A041HCori/LCori-biotin (biotinylated form)
Consider B4, for which the binding result in assay [1] and in assay [2] was “binds” throughout.

B5: CUB4 antibody (antibody, human IgG1, kappa, V domains shown)
VH: EVQLVESGGGLVQPGGSLRLSCAASGFTFNSYGMSWVRQAPGKGLEWVATISSGGSYKYYVDSVKGRFTISRDNAKNSLYLQMNSLRAEDTAVYYCARHPDYDGVWFAYWGQGTLVTVSS
VL: EIVLTQSPATLSLSPGERATMSCSVSSSVFYLHWYQQKPGQAPRLWIYDTSKLASGIPARFSGSGSGTDFTLTISSLEPEDFAVYYCQQWNSNPPTFGGGTKVEIKR
notes: also called CUB4-biotin (biotinylated form)
B5: the binding result in assay [4] is reported as “binds”.

B6: mh14A025HCori/LCori (antibody, human IgG1, kappa, V domains shown)
VH: EVQLQESGAELVRPGALVKLSCKASGFNIKDYYMHWVKQRPEQGLEWIGWIDPENGNTIYDPKFQGKASITADTSSNTAYLQLSSLTSEDTAVYYCGGLLYAMDYWGQGTSVTVSS
VL: DIQMTQTTSSLSASLGDRVTISCRASQDISNYLNWYQQKPDGTVKLLIYFTSRLHSGVPSRFSGSGSGTDYSLTISNLEQEDIATYFCQQGNTLPRTFGGGTKLEIRR
notes: mouse-human chimeric antibody, human IgG1/kappa constant regions; also called mh14A025HCori/LCori-biotin (biotinylated form)
B6: the binding result in assay [1] and in assay [2] was “binds” throughout.

B7: 25A11 antibody (antibody, human IgG1, kappa, V domains shown)
VH: QVQLQQPGAELVKPGASVKMSCKASGYTFTSYYMYWVKQRPGQGLEWIGEINPSHGGTNFNEKFKNKATLTVDKSSSTVYMQLSSLTSEDSAVYYCTRGGNYPYFAMDYWGQGTSVTVSS
VL: DIQMTQTTSSLSASLGDRVTISCRASQDISNYLNWYQQKPDGTVKLLIYYTSRLHSGVPSRFSGSGSGTDYSLTISNLEQEDIATYFCQQGNTLPWTFGGGTKLEIKR
notes: also called 25A11 biotin; 25A11-biotin (biotinylated form)
Take B7: in assay [4], the binding result is listed as “binds”.

B8: mh14A043HCori/LCori (antibody, human IgG1, kappa, V domains shown)
VH: EVQLQESGAELVRPGALVKLSCKASGFNIKDYYMNWVKQRPEQGLEWIGWIDPENGNTIYDPKFQGKASITADTSSNTAYLQLSSLTSEDTAVYYCYGSSYRFTYWGQGTLVTVSS
VL: QIVLIQSPALMSASPGEKVTMTCSASSSVSYMYWYQQKPRSSPKPWIYLTSNLASGVPARFSGSGSGTSYSLTISSMEAEDAATYYCQQWSSNPFTFGSGTKLEIKR
notes: mouse-human chimeric antibody, human IgG1/kappa constant regions; also called mh14A043HCori/LCori-biotin (biotinylated form)
As to B8, the binding result in assay [1] and in assay [2] was “binds” each time.
